Measurements published in US10098938B2, “Peptides and combination of peptides for use in immunotherapy against various cancers” (immatics biotechnologies GmbH, priority 2015, dated 2018).

What was measured:
HLA-A*02 = HLA-A*02 (Homo sapiens, UniProt P04439, D140Y/D185E/D98H/E176V/E277Q/G131W/G231S/I119V/I121R/I166T/I218V/L300P/N151K/N90K/P208A/P217A/Q86G/Q94H/R138H/R169H); assay: MHC binding assay, UV-ligand exchange with β2m ELISA, HLA-A*02; conditions: binding to HLA-A*02 ranged by peptide exchange yield
Description: (§1) Candidate peptides for T cell based therapies according to the present invention were further tested for their MHC binding capacity (affinity). The individual peptide-MHC complexes were produced by UV-ligand exchange, where a UV-sensitive peptide is cleaved upon UV-irradiation, and exchanged with the peptide of interest as analyzed. Only peptide candidates that can effectively bind and stabilize the peptide-receptive MHC molecules prevent dissociation of the MHC complexes. To determine the yield of the exchange reaction, an ELISA was performed based on the detection of the light chain (β2m) of stabilized MHC complexes. The assay was performed as generally described in Rodenko et al. (Rodenko et al., 2006).
(§2) 96 well MAXISorp plates (NUNC) were coated over night with 2 ug/ml streptavidin in PBS at room temperature, washed 4× and blocked for 1 h at 37° C. in 2% BSA containing blocking buffer. Refolded HLA-A*02:01/MLA-001 monomers served as standards, covering the range of 15-500 ng/ml. Peptide-MHC monomers of the UV-exchange reaction were diluted 100 fold in blocking buffer. Samples were incubated for 1 h at 37° C., washed four times, incubated with 2 ug/ml HRP conjugated anti-β2m for 1 h at 37° C., washed again and detected with TMB solution that is stopped with […]. Absorption was measured at 450 nm. Candidate peptides that show a high exchange yield (preferably higher than 50%, most preferred higher than 75%) are generally preferred for a generation and production of antibodies or fragments thereof, and/or T cell receptors or fragments thereof, as they show sufficient avidity to the MHC molecules and prevent dissociation of the MHC complexes.

CD8+ T cells = assay: In vitro immunogenicity: T-cell priming with aAPCs loaded with peptide/MHC and anti-CD28, pMHC multimer readout; assay type: cell-based, human; conditions: in vitro immunogenicity of HLA class I peptides; for Wells positive [%]: pMHC multimer readout after T-cell priming; for Wells: CD8+ T cells of healthy donors, three stimulation cycles, multimer staining
Description: In order to obtain information regarding the immunogenicity of the TUMAPs of the present invention, the inventors performed investigations using an in vitro T-cell priming assay based on repeated stimulations of CD8+ T cells with artificial antigen presenting cells (aAPCs) loaded with peptide/MHC complexes and anti-CD28 antibody.
In order to perform in vitro stimulations by artificial antigen presenting cells loaded with peptide-MHC complex (pMHC) and anti-CD28 antibody, the inventors first isolated CD8+ T cells from fresh HLA-A*02 leukapheresis products via positive selection using CD8 microbeads (Miltenyi Biotec, Bergisch-Gladbach, Germany) of healthy donors obtained from the University clinics Mannheim, Germany, after informed consent.
PBMCs and isolated CD8+ lymphocytes were incubated in T-cell medium (TCM) until use consisting of RPMI-Glutamax (Invitrogen, Karlsruhe, Germany) supplemented with 10% heat inactivated human AB serum (PAN-Biotech, Aidenbach, Germany), 100 U/ml Penicillin/100 μg/ml Streptomycin (Cambrex, Cologne, Germany), 1 mM sodium pyruvate (CC Pro, Oberdorla, Germany), 20 μg/ml Gentamycin (Cambrex). 2.5 ng/ml IL7 (PromoCell, Heidelberg, Germany) and 10 U/ml IL-2 (Novartis Pharma, Nürnberg, Germany) were also added to the TCM at this step.
Generation of pMHC/anti-CD28 coated beads, T-cell stimulations and readout was performed in a highly defined in vitro system using four different pMHC molecules per stimulation condition and 8 different pMHC molecules per readout condition.
The purified co-stimulatory mouse IgG2a anti human CD28 Ab 9.3 (Jung et al., 1987) was chemically biotinylated using Sulfo-N-hydroxysuccinimidobiotin as recommended by the manufacturer (Perbio, Bonn, Germany). Beads used were 5.6 μm diameter streptavidin coated polystyrene particles (Bangs Laboratories, Illinois, USA).
pMHC used for positive and negative control stimulations were A*0201/MLA-001 (peptide […] (SEQ ID NO. 303) from modified Melan-A/MART-1) and A*0201/DDX5-001 ([…] from DDX5, SEQ ID NO. 304), respectively.
800.000 beads/200 μl were coated in 96-well plates in the presence of 4×12.5 ng different biotin-pMHC, washed and 600 ng biotin anti-CD28 were added subsequently in a volume of 200 μl. Stimulations were initiated in 96-well plates by co-incubating […] CD8+ T cells with 2×10^5 washed coated beads in 200 μl TCM supplemented with 5 ng/ml IL-12 (PromoCell) for 3 days at 37° C. Half of the medium was then exchanged by fresh TCM supplemented with 80 U/ml IL-2 and incubating was continued for 4 days at 37° C. This stimulation cycle was performed for a total of three times. For the pMHC multimer readout using 8 different pMHC molecules per condition, a two-dimensional combinatorial coding approach was used as previously described (Andersen et al., 2012) with minor modifications encompassing coupling to 5 different fluorochromes. Finally, multimeric analyses were performed by staining the cells with Live/dead near IR dye (Invitrogen, Karlsruhe, Germany), CD8-FITC antibody clone SK1 (BD, Heidelberg, Germany) and fluorescent pMHC multimers. For analysis, a BD LSRII SORP cytometer equipped with appropriate lasers and filters was used. Peptide specific cells were calculated as percentage of total CD8+ cells. Evaluation of multimeric analysis was done using the FlowJo software (Tree Star, Oregon, USA). In vitro priming of specific multimer+ CD8+ lymphocytes was detected by comparing to negative control stimulations.

HLA-A*24 = assay: MHC binding assay, UV-ligand exchange with β2m ELISA, HLA-A*24; parameters: species or system human; conditions: binding to HLA-A*24 ranged by peptide exchange yield
Description: as §1, §2

Row | Substance | Peptide exchange (HLA-A*02) | also measured
1 | 1 (LLYPEPWSV; listed as Homo sapiens) [compound 1] | ++++ (> = 75% = ++++) | 
2 | 3 (KLEENGDLYL; listed as Homo sapiens) [compound 3] | ++++ (> = 75% = ++++) | 
3 | 4 (KLMPGTYTL; listed as Homo sapiens) [compound 4] | ++++ (> = 75% = ++++) | Wells positive [%] (CD8+ T cells): + (<20% = +)
4 | 12 (GLLPLLHRA; listed as Homo sapiens) [compound 12] | ++++ (> = 75% = ++++) | Wells positive [%] (CD8+ T cells): ++++ (> = 70% = ++++)
5 | 14 (ILAKDLFEI; listed as Homo sapiens) [compound 14] | ++++ (> = 75% = ++++) | 
6 | 16 (YTLDIPVLFGV; listed as Homo sapiens) [compound 16] | ++++ (> = 75% = ++++) | 
7 | 34 (FLLATEVVTV; listed as Homo sapiens) [compound 34] | ++++ (> = 75% = ++++) | 
8 | 42 (LLDSVSRL; listed as Homo sapiens) [compound 42] | + (<20% = +) | 
9 | 51 (LLFSRLCGA; listed as Homo sapiens) [compound 51] | ++++ (> = 75% = ++++) | 
10 | 82 (FIFDEAEKL; listed as Homo sapiens) [compound 82] | + (<20% = +) | 
11 | 84 (ALCPRIHEV; listed as Homo sapiens) [compound 84] | ++++ (> = 75% = ++++) | 
12 | 92 (GLLFSLRSV; listed as Homo sapiens) [compound 92] | ++++ (> = 75% = ++++) | 
13 | 95 (GLLGSLFFL; listed as Homo sapiens) [compound 95] | ++++ (> = 75% = ++++) | 
14 | 100 (ALLGMIIVGV; listed as Homo sapiens) [compound 100] | + (<20% = +) | 
15 | 112 (SLGKFTFDV; listed as Homo sapiens) [compound 112] | ++++ (> = 75% = ++++) | 
16 | 120 (VTPVTVSAV; listed as Homo sapiens) [compound 120] | + (<20% = +) | 
17 | 125 (SLADYEHFV; listed as Homo sapiens) [compound 125] | ++++ (> = 75% = ++++) | 
18 | 126 (QMFQYFITV; listed as Homo sapiens) [compound 126] | ++++ (> = 75% = ++++) | 
19 | 129 (RLQDILWFL; listed as Homo sapiens) [compound 129] | ++++ (> = 75% = ++++) | 
20 | 133 (ALLPRLHQL; listed as Homo sapiens) [compound 133] | ++++ (> = 75% = ++++) | 

Row | Substance | Peptide exchange (HLA-A*02) | also measured
21 | 147 (YLMDDTVEI; listed as Homo sapiens) [compound 147] | ++++ (> = 75% = ++++) | 
22 | 153 (FISERVEVV; listed as Homo sapiens) [compound 153] | ++++ (> = 75% = ++++) | 
23 | 158 (HYSQELSLLYL; listed as Homo sapiens) [compound 158] |  | Peptide exchange (HLA-A*24): ++++ (> = 75% = ++++); Wells positive [%] (CD8+ T cells): + (<20% = +)
24 | 159 (LYNKGFIYL; listed as Homo sapiens) [compound 159] |  | Peptide exchange (HLA-A*24): ++++ (> = 75% = ++++); Wells positive [%] (CD8+ T cells): ++++ (> = 70% = ++++)
25 | 163 (DYLKGLASF; listed as Homo sapiens) [compound 163] |  | Peptide exchange (HLA-A*24): ++++ (> = 75% = ++++); Wells positive [%] (CD8+ T cells): + (<20% = +)
26 | 165 (DYTTWTALL; listed as Homo sapiens) [compound 165] |  | Peptide exchange (HLA-A*24): ++++ (> = 75% = ++++); Wells positive [%] (CD8+ T cells): + (<20% = +)
27 | 167 (NYINRILKL; listed as Homo sapiens) [compound 167] |  | Peptide exchange (HLA-A*24): ++++ (> = 75% = ++++); Wells positive [%] (CD8+ T cells): + (<20% = +)
28 | 204 (TYELRYFQI; listed as Homo sapiens) [compound 204] |  | Peptide exchange (HLA-A*24): ++++ (> = 75% = ++++); Wells positive [%] (CD8+ T cells): + (<20% = +)
29 | 229 (AILAHLNTV; listed as Homo sapiens) [compound 229] | ++++ (> = 75% = ++++) | 
30 | 245 (SLLDLPLSL; listed as Homo sapiens) [compound 245] | ++++ (> = 75% = ++++) | 
31 | 248 (YLDRFLAGV; listed as Homo sapiens) [compound 248] | ++++ (> = 75% = ++++) | 
32 | 249 (GLCERLVSL; listed as Homo sapiens) [compound 249] | ++++ (> = 75% = ++++) | Wells positive [%] (CD8+ T cells): + (<20% = +)
33 | 257 (GLYTDPCGV; listed as Homo sapiens) [compound 257] | ++++ (> = 75% = ++++) | 
34 | 258 (LLSERFINV; listed as Homo sapiens) [compound 258] | ++++ (> = 75% = ++++) | 
35 | 292 (GMMTAILGV; listed as Homo sapiens) [compound 292] |  | Wells (CD8+ T cells): + (<20% = +)
36 | 293 (FLVDGSWSI; listed as Homo sapiens) [compound 293] |  | Wells (CD8+ T cells): + (<20% = +)
37 | 296 (TYVDSSHTI; listed as Homo sapiens) [compound 296] |  | Wells (CD8+ T cells): + (<20% = +)
38 | 298 (RYLEGTSCI; listed as Homo sapiens) [compound 298] |  | Wells (CD8+ T cells): + (<20% = +)
39 | 300 (AYVLRLETL; listed as Homo sapiens) [compound 300] |  | Wells (CD8+ T cells): + (<20% = +)
40 | 301 (AYKPGALTF; listed as Homo sapiens) [compound 301] |  | Wells (CD8+ T cells): + (<20% = +)
